Source: IntAct's records for PubMed 18188153

B1: Glutamate receptor 4 (Rattus norvegicus (Rat)), P19493 (parent)
chain: MRIICRQIVLLFSGFWGLAMGAFPSSVQIGGLFIRNTDQEYTAFRLAIFLHNTSPNASEAPFNLVPHVDNIETANSFAVTNAFCSQYSRGVFAIFGLYDKRSVHTLTSFCSALHISLITPSFPTEGESQFVLQLRPSLRGALLSLLDHYEWNCFVFLYDTDRGYSILQAIMEKAGQNGWHVSAICVENFNDVSYRQLLEELDRRQEKKFVIDCEIERLQNILEQIVSVGKHVKGYHYIIANLGFKDISLERFIHGGANVTGFQLVDFNTPMVTKLMDRWKKLDQREYPGSETPPKYTSALTYDGVLVMAETFRSLRRQKIDISRRGNAGDCLANPAAPWGQGIDMERTLKQVRIQGLTGNVQFDHYGRRVNYTMDVFELKSTGPRKVGYWNDMDKLVLIQDMPTLGNDTAAIENRTVVVTTIMESPYVMYKKNHEMFEGNDKYEGYCVDLASEIAKHIGIKYKIAIVPDGKYGARDADTKIWNGMVGELVYGKAEIAIAPLTITLVREEVIDFSKPFMSLGISIMIKKPQKSKPGVFSFLDPLAYEIWMCIVFAYIGVSVVLFLVSRFSPYEWHTEEPEDGKEGPSDQPPNEFGIFNSLWFSLGAFMQQGCDISPRSLSGRIVGGVWWFFTLIIISSYTANLAAFLTVERMVSPIESAEDLAKQTEIAYGTLDSGSTKEFFRRSKIAVYEKMWTYMRSAEPSVFTRTTAEGVARVRKSKGKFAFLLESTMNEYTEQRKPCDTMKVGGNLDSKGYGVATPKGSSLGNAVNLAVLKLNEQGLLDKLKNKWWYDKGECGSGGGDSKDKTSALSLSNVAGVFYILVGGLGLAMLVALIEFCYKSRAEAKRMKLTFSEATRNKARLSITGSVGENGRVLTPDCPKAVHTGTAIRQSSGLAVIASDLP

Variants of: B1
Conditions: with mk08_rat Mapk8, P49185
Sequence of mk08_rat Mapk8, P49185 (P49185 whole entry): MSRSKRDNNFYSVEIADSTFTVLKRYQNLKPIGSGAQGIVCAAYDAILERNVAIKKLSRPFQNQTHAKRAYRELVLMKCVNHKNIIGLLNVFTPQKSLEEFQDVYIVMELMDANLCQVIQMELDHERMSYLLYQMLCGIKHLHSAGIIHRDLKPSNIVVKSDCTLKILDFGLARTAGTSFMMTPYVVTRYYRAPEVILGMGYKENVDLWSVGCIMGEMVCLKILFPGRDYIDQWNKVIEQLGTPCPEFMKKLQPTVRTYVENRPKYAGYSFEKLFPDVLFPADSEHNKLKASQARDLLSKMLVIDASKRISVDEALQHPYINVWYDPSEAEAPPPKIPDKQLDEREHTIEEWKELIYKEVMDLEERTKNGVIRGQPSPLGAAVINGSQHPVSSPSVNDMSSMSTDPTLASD

effect of a mutation on the interaction	Variant
disrupting interaction	T855A
